According to publication PMC5939101 (Proceedings of the National Academy of Sciences of the …, 2018):

Target: T1, His-Ivy1 (recombinant wild-type Ivy1) (S. cerevisiae, UniProt Q04934 1-453)
T1 sequence: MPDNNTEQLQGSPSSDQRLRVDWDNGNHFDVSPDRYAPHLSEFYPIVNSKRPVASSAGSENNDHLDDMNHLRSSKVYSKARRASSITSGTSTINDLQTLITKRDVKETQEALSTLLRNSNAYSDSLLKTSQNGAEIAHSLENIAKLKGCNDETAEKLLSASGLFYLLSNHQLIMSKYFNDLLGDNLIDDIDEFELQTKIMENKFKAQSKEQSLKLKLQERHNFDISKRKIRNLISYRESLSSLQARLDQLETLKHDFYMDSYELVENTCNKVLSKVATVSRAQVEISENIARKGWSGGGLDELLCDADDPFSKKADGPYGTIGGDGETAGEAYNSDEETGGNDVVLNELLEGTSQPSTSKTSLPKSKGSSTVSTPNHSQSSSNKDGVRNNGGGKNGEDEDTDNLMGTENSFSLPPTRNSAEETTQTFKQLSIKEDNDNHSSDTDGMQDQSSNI
Assay: pull-down

B1: GST-Ypt7 (natural protein)
chain: MSSRKKNILKVIILGDSGVGKTSLMHRYVNDKYSQQYKATIGADFLTKEVTVDGDKVATMQVWDTAGQERFQSLGVAFYRGADCCVLVYDVTNASSFENIKSWRDEFLVHANVNSPETFPFVILGNKIDAEESKKIVSEKSAQELAKSLGDIPLFLTSAKNAINVDTAFEEIARSALQQNQADTEAFEDDYNDAINIRLDGENNSCSC
Q: Does B1 bind?
A: binds
